The target in the series is Asp64 (UniProt position 64, EGCPTDSIKVA). As to the kind of experiment: kinetics. The following applies: 28 °C; reduced [4Fe-4S] cluster undergoing air oxidation.

As to “[4Fe-4S] ferredoxin (BtFd) (Bacillus thermoproteolyticus)”, the pKa entry was “between a pH of 6.0 to 7.0”.

The record behind these values is publication doi:10.1101/2024.09.12.612615.
